Here are results for eight molecules from patent publication US20220211857A1, “POLYPEPTIDE DERIVATIVE AND PREPARATION METHOD THEREOF” (NINGBO KUNPENG BIOTECH CO., LTD., priority 2019, published 2022).

Series [1] is described as follows: Pharmacokinetics studies of PTH-1 derivatives in rats (single subcutaneous injection, LC-MS/MS, NCA). Type of series: in vivo. The settings on record: rat; for half-lives (in words): experiment of Example 10 repeated in the same way. The protocol:
PTH-1 and L6-GFA16-PTH-1 were injected subcutaneously with a single administration of 8.6 μg/kg, respectively. Animals in each group were collected blood at 0 min, 5 min, 15 min, 30 min, 1 h, 2 h, and 4 h after administration. […] Exposure time of drugs in vivo was prolonged and exposure doses were increased.

The nature of series [2]: Pharmacokinetics studies of GLP-1 derivatives in rats (single subcutaneous injection, LC-MS/MS, NCA). The settings on record: rat; for half-lives (in words): experiment of Example 8 repeated in the same way.
Experimental: The experiment comprised a reference substance group and a test substance group. GLP-1 and L6-GFA16-GLP-1 were injected subcutaneously with a single administration of 0.5 mg/kg, respectively. Animals in each group were collected blood at 15 min, 30 min, 1 h, 2 h, 3 h, 5 h, 7 h, 12 h, and 24 h after administration. LC-MS/MS analysis method was used to detect contents of different GLP-1 analogues.

Where a SMILES comes first, the peptide text is derived from it. The star is where a group is joined. X1 = O=C(O)CCCCCCCCCCCCCCC(=O)NC(CCC(=O)NCCOCCOCC(=O)NCCOCCOCC(=O)NCCn1cc(CCOC(=O)*)nn1)C(=O)O; X3 = O=C(O)CCCCCCCCCCCCCCC(=O)NC(CCC(=O)NCCOCCOCCOCCOCCn1cc(CCOC(=O)*)nn1)C(=O)O; X4 = O=C(O)CCCCCCCCCCCCCCC(=O)NC(CCC(=O)NCCOCCOCCn1cc(CCOC(=O)*)nn1)C(=O)O

With `CC[C@H](C)[C@H](NC(=O)[C@H](CCC(=O)O)NC(=O)[C@H](CO)NC(=O)[C@@H](NC(=O)[C@@H](N)CO)C(C)C)C(=O)N[C@@H](CCC(N)=O)C(=O)N[C@@H](CC(C)C)C(=O)N[C@@H](CCSC)C(=O)N[C@@H](Cc1c[nH]cn1)C(=O)N[C@@H](CC(N)=O)C(=O)N[C@@H](CC(C)C)C(=O)NCC(=O)N[C@@H](CCCNC(=N)N)C(=O)N[C@@H](Cc1c[nH]cn1)C(=O)N[C@@H](CC(C)C)C(=O)N[C@@H](CC(N)=O)C(=O)N[C@@H](CO)C(=O)N[C@@H](CCSC)C(=O)N[C@@H](CCC(=O)O)C(=O)N[C@@H](CCCNC(=N)N)C(=O)N[C@H](C(=O)N[C@@H](CCC(=O)O)C(=O)N[C@@H](Cc1c[nH]c2ccccc12)C(=O)N[C@@H](CC(C)C)C(=O)N[C@@H](CCCNC(=N)N)C(=O)N[C@@H](CCCCNC(=O)OCCc1cn(CCNC(=O)COCCOCCNC(=O)COCCOCCNC(=O)CCC(NC(=O)CCCCCCCCCCCCCCC(=O)O)C(=O)O)nn1)C(=O)N[C@@H](CCCNC(=N)N)C(=O)N[C@@H](CC(C)C)C(=O)N[C@@H](CCC(N)=O)C(=O)N[C@@H](CC(=O)O)C(=O)N[C@H](C(=O)N[C@@H](Cc1c[nH]cn1)C(=O)N[C@@H](CC(N)=O)C(=O)N[C@@H](Cc1ccccc1)C(=O)O)C(C)C)C(C)C` (stereo partly drawn) [L6-GFA16-PTH] (H-SVSEIQLMHNLGRHLNSMERVEWLRK(X1)RLQDVHNF-OH), the Tmax in series [1] (in vivo, sc, s.c. 8.6 μg/kg, summary of Table 3, read-out: peak times) was roughly 1.6 h.

For `CC[C@H](C)[C@H](NC(=O)[C@H](Cc1ccccc1)NC(=O)[C@H](CCC(=O)O)NC(=O)[C@H](CCCCNC(=O)OCCc1cn(CCOCCOCCOCCNC(=O)CCC(NC(=O)CCCCCCCCCCCCCCC(=O)O)C(=O)O)nn1)NC(=O)[C@H](C)NC(=O)[C@H](C)NC(=O)[C@H](CCC(N)=O)NC(=O)CNC(=O)[C@H](CCC(=O)O)NC(=O)[C@H](CC(C)C)NC(=O)[C@H](Cc1ccc(O)cc1)NC(=O)[C@H](CO)NC(=O)[C@H](CO)NC(=O)[C@@H](NC(=O)[C@H](CC(=O)O)NC(=O)[C@H](CO)NC(=O)[C@@H](NC(=O)[C@H](Cc1ccccc1)NC(=O)[C@@H](NC(=O)CNC(=O)[C@H](CCC(=O)O)NC(=O)[C@H](C)NC(=O)[C@@H](N)Cc1c[nH]cn1)[C@@H](C)O)[C@@H](C)O)C(C)C)C(=O)N[C@@H](C)C(=O)N[C@@H](Cc1c[nH]c2ccccc12)C(=O)N[C@@H](CC(C)C)C(=O)N[C@H](C(=O)N[C@@H](CCCCN)C(=O)NCC(=O)N[C@@H](CCCNC(=N)N)C(=O)NCC(=O)O)C(C)C` (stereo partly drawn) [L3-GFA16-GLP-1], the “half-lives (in words)” value in series [2] was “significantly prolonged”.

Take `CC[C@H](C)[C@H](NC(=O)[C@H](CCC(=O)O)NC(=O)[C@H](CO)NC(=O)[C@@H](NC(=O)[C@@H](N)CO)C(C)C)C(=O)N[C@@H](CCC(N)=O)C(=O)N[C@@H](CC(C)C)C(=O)N[C@@H](CCSC)C(=O)N[C@@H](Cc1c[nH]cn1)C(=O)N[C@@H](CC(N)=O)C(=O)N[C@@H](CC(C)C)C(=O)NCC(=O)N[C@@H](CCCNC(=N)N)C(=O)N[C@@H](Cc1c[nH]cn1)C(=O)N[C@@H](CC(C)C)C(=O)N[C@@H](CC(N)=O)C(=O)N[C@@H](CO)C(=O)N[C@@H](CCSC)C(=O)N[C@@H](CCC(=O)O)C(=O)N[C@@H](CCCNC(=N)N)C(=O)N[C@H](C(=O)N[C@@H](CCC(=O)O)C(=O)N[C@@H](Cc1c[nH]c2ccccc12)C(=O)N[C@@H](CC(C)C)C(=O)N[C@@H](CCCNC(=N)N)C(=O)N[C@@H](CCCCNC(=O)OCCc1cn(CCOCCOCCNC(=O)CCC(NC(=O)CCCCCCCCCCCCCCC(=O)O)C(=O)O)nn1)C(=O)N[C@@H](CCCNC(=N)N)C(=O)N[C@@H](CC(C)C)C(=O)N[C@@H](CCC(N)=O)C(=O)N[C@@H](CC(=O)O)C(=O)N[C@H](C(=O)N[C@@H](Cc1c[nH]cn1)C(=O)N[C@@H](CC(N)=O)C(=O)N[C@@H](Cc1ccccc1)C(=O)O)C(C)C)C(C)C` (stereo partly drawn) [L2-GFA16-PTH] (H-SVSEIQLMHNLGRHLNSMERVEWLRK(X4)RLQDVHNF-OH): the “half-lives (in words)” value in series [1] is reported as “significantly prolonged”.

Regarding `CC[C@H](C)[C@H](NC(=O)[C@H](CCC(=O)O)NC(=O)[C@H](CO)NC(=O)[C@@H](NC(=O)[C@@H](N)CO)C(C)C)C(=O)N[C@@H](CCC(N)=O)C(=O)N[C@@H](CC(C)C)C(=O)N[C@@H](CCSC)C(=O)N[C@@H](Cc1c[nH]cn1)C(=O)N[C@@H](CC(N)=O)C(=O)N[C@@H](CC(C)C)C(=O)NCC(=O)N[C@@H](CCCNC(=N)N)C(=O)N[C@@H](Cc1c[nH]cn1)C(=O)N[C@@H](CC(C)C)C(=O)N[C@@H](CC(N)=O)C(=O)N[C@@H](CO)C(=O)N[C@@H](CCSC)C(=O)N[C@@H](CCC(=O)O)C(=O)N[C@@H](CCCNC(=N)N)C(=O)N[C@H](C(=O)N[C@@H](CCC(=O)O)C(=O)N[C@@H](Cc1c[nH]c2ccccc12)C(=O)N[C@@H](CC(C)C)C(=O)N[C@@H](CCCNC(=N)N)C(=O)N[C@@H](CCCCNC(=O)OCCc1cn(CCOCCOCCOCCOCCNC(=O)CCC(NC(=O)CCCCCCCCCCCCCCC(=O)O)C(=O)O)nn1)C(=O)N[C@@H](CCCNC(=N)N)C(=O)N[C@@H](CC(C)C)C(=O)N[C@@H](CCC(N)=O)C(=O)N[C@@H](CC(=O)O)C(=O)N[C@H](C(=O)N[C@@H](Cc1c[nH]cn1)C(=O)N[C@@H](CC(N)=O)C(=O)N[C@@H](Cc1ccccc1)C(=O)O)C(C)C)C(C)C` (stereo partly drawn) [L4-GFA16-PTH] (H-SVSEIQLMHNLGRHLNSMERVEWLRK(X3)RLQDVHNF-OH), the “half-lives (in words)” value in series [1] is listed as “significantly prolonged”.

Take `CC[C@H](C)[C@H](NC(=O)[C@H](Cc1ccccc1)NC(=O)[C@H](CCC(=O)O)NC(=O)[C@H](CCCCNC(=O)OCCc1cn(CCNC(=O)CCC(NC(=O)CCCCCCCCCCCCCCC(=O)O)C(=O)O)nn1)NC(=O)[C@H](C)NC(=O)[C@H](C)NC(=O)[C@H](CCC(N)=O)NC(=O)CNC(=O)[C@H](CCC(=O)O)NC(=O)[C@H](CC(C)C)NC(=O)[C@H](Cc1ccc(O)cc1)NC(=O)[C@H](CO)NC(=O)[C@H](CO)NC(=O)[C@@H](NC(=O)[C@H](CC(=O)O)NC(=O)[C@H](CO)NC(=O)[C@@H](NC(=O)[C@H](Cc1ccccc1)NC(=O)[C@@H](NC(=O)CNC(=O)[C@H](CCC(=O)O)NC(=O)[C@H](C)NC(=O)[C@@H](N)Cc1c[nH]cn1)[C@@H](C)O)[C@@H](C)O)C(C)C)C(=O)N[C@@H](C)C(=O)N[C@@H](Cc1c[nH]c2ccccc12)C(=O)N[C@@H](CC(C)C)C(=O)N[C@H](C(=O)N[C@@H](CCCCN)C(=O)NCC(=O)N[C@@H](CCCNC(=N)N)C(=O)NCC(=O)O)C(C)C` (stereo partly drawn) [L0-GFA16-GLP-1]: the “half-lives (in words)” value in series [2] was “significantly prolonged”.

As to `CC[C@H](C)[C@H](NC(=O)[C@H](Cc1ccccc1)NC(=O)[C@H](CCC(=O)O)NC(=O)[C@H](CCCCNC(=O)OCCc1cn(CCOCCOCCOCCOCCNC(=O)CCC(NC(=O)CCCCCCCCCCCCCCC(=O)O)C(=O)O)nn1)NC(=O)[C@H](C)NC(=O)[C@H](C)NC(=O)[C@H](CCC(N)=O)NC(=O)CNC(=O)[C@H](CCC(=O)O)NC(=O)[C@H](CC(C)C)NC(=O)[C@H](Cc1ccc(O)cc1)NC(=O)[C@H](CO)NC(=O)[C@H](CO)NC(=O)[C@@H](NC(=O)[C@H](CC(=O)O)NC(=O)[C@H](CO)NC(=O)[C@@H](NC(=O)[C@H](Cc1ccccc1)NC(=O)[C@@H](NC(=O)CNC(=O)[C@H](CCC(=O)O)NC(=O)[C@H](C)NC(=O)[C@@H](N)Cc1c[nH]cn1)[C@@H](C)O)[C@@H](C)O)C(C)C)C(=O)N[C@@H](C)C(=O)N[C@@H](Cc1c[nH]c2ccccc12)C(=O)N[C@@H](CC(C)C)C(=O)N[C@H](C(=O)N[C@@H](CCCCN)C(=O)NCC(=O)N[C@@H](CCCNC(=N)N)C(=O)NCC(=O)O)C(C)C` (stereo partly drawn) [L4-GFA16-GLP-1], the “half-lives (in words)” value in series [2] is on record as “significantly prolonged”.

For `CC[C@H](C)[C@H](NC(=O)[C@H](Cc1ccccc1)NC(=O)[C@H](CCC(=O)O)NC(=O)[C@H](CCCCNC(=O)OCCc1cn(CCNC(=O)COCCOCCNC(=O)COCCOCCNC(=O)CCC(NC(=O)CCCCCCCCCCCCCCC(=O)O)C(=O)O)nn1)NC(=O)[C@H](C)NC(=O)[C@H](C)NC(=O)[C@H](CCC(N)=O)NC(=O)CNC(=O)[C@H](CCC(=O)O)NC(=O)[C@H](CC(C)C)NC(=O)[C@H](Cc1ccc(O)cc1)NC(=O)[C@H](CO)NC(=O)[C@H](CO)NC(=O)[C@@H](NC(=O)[C@H](CC(=O)O)NC(=O)[C@H](CO)NC(=O)[C@@H](NC(=O)[C@H](Cc1ccccc1)NC(=O)[C@@H](NC(=O)CNC(=O)[C@H](CCC(=O)O)NC(=O)[C@H](C)NC(=O)[C@@H](N)Cc1c[nH]cn1)[C@@H](C)O)[C@@H](C)O)C(C)C)C(=O)N[C@@H](C)C(=O)N[C@@H](Cc1c[nH]c2ccccc12)C(=O)N[C@@H](CC(C)C)C(=O)N[C@H](C(=O)N[C@@H](CCCCN)C(=O)NCC(=O)N[C@@H](CCCNC(=N)N)C(=O)NCC(=O)O)C(C)C` (stereo partly drawn) [L6-GFA16-GLP-1], in series [2] (s.c. 0.5 mg/kg, versus GLP-1), the “Exposure time in vivo” value is recorded as “prolonged” and the exposure doses result is listed as “increased significantly”.

Turning to `CC[C@H](C)[C@H](NC(=O)[C@H](Cc1ccccc1)NC(=O)[C@H](CCC(=O)O)NC(=O)[C@H](CCCCNC(=O)OCCc1cn(CCOCCOCCNC(=O)CCC(NC(=O)CCCCCCCCCCCCCCC(=O)O)C(=O)O)nn1)NC(=O)[C@H](C)NC(=O)[C@H](C)NC(=O)[C@H](CCC(N)=O)NC(=O)CNC(=O)[C@H](CCC(=O)O)NC(=O)[C@H](CC(C)C)NC(=O)[C@H](Cc1ccc(O)cc1)NC(=O)[C@H](CO)NC(=O)[C@H](CO)NC(=O)[C@@H](NC(=O)[C@H](CC(=O)O)NC(=O)[C@H](CO)NC(=O)[C@@H](NC(=O)[C@H](Cc1ccccc1)NC(=O)[C@@H](NC(=O)CNC(=O)[C@H](CCC(=O)O)NC(=O)[C@H](C)NC(=O)[C@@H](N)Cc1c[nH]cn1)[C@@H](C)O)[C@@H](C)O)C(C)C)C(=O)N[C@@H](C)C(=O)N[C@@H](Cc1c[nH]c2ccccc12)C(=O)N[C@@H](CC(C)C)C(=O)N[C@H](C(=O)N[C@@H](CCCCN)C(=O)NCC(=O)N[C@@H](CCCNC(=N)N)C(=O)NCC(=O)O)C(C)C` (stereo partly drawn) [L2-GFA16-GLP-1], the “half-lives (in words)” value in series [2] is “significantly prolonged”.
